The results in this text go back to PMC4167904.

For the data set, the target named is T1, p52 (NF-kB2) (human, UniProt Q00653 1-408).
T1 sequence: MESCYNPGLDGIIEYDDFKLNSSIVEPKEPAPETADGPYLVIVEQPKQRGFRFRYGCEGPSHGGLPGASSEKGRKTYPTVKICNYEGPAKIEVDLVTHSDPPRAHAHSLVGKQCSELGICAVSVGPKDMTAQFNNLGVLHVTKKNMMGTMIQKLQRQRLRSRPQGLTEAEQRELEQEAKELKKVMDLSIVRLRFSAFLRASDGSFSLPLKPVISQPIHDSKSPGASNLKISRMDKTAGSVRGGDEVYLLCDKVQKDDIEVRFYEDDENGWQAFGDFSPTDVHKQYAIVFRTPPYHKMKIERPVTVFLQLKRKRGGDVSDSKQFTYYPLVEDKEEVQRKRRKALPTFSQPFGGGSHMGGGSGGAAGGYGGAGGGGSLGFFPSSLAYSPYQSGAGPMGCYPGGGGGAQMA
The experiment in a line: EMSA.

B1: P-selectin kB (A/T) (dsDNA)
DNA 1: TCGACGGAAGGGGGTAACCCCTTGGG
DNA 2: GATCCCCAAGGGGTTACCCCCTTCCG
Regarding B1, the binding result is listed as “binds”.
